Reference: US20140087995A1 (published 2014)
Each block holds one binder with its values, some of them ahead of it. Numbered stars: 1 amine (or outer) side, 2 acyl side, 3 side chain; on linkers, the order of the positions; unused ones are H or OH. Bridge positions count the residues as written; N and C are the ends. Square brackets hold non-standard residues; d marks the D form. Side chains are listed from the residue outwards. Ends that are not written are not given here. * marks the point of attachment. C20 diacid = O=C(O)CCCCCCCCCCCCCCCCCCC(=O)*; γGlu = O=C(O)[C@H](CCC(=O)[*:2])N[*:1]

What was measured:
[1] = target: T1, human amylin 3(a) receptor (human calcitonin receptor + RAMP-3) (human, UniProt P30988 25-474; O60896 24-148, limits assumed); experiment: SPA competition binding, membranes of BHK cells with human calcitonin receptor + RAMP-3, displacement of 125I-rat amylin (Assay V)
T1 construct: whole, on cells; Whole cells in the luciferase assay (Assay II a); also called hAmylin-R; hAmylinR
T1 sequence (looked up) 1: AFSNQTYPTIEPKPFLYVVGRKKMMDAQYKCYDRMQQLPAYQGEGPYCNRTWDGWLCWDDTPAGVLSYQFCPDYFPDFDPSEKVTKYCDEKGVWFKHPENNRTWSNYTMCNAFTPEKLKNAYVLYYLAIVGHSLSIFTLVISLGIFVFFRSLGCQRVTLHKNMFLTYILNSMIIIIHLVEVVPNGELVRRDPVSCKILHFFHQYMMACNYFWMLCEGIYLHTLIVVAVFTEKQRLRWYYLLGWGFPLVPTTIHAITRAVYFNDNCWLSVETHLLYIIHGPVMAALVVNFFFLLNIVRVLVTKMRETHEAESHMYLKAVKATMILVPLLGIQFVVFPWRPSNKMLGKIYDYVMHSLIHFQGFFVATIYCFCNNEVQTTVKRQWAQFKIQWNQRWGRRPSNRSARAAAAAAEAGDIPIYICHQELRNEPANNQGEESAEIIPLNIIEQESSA
T1 sequence (looked up) 2: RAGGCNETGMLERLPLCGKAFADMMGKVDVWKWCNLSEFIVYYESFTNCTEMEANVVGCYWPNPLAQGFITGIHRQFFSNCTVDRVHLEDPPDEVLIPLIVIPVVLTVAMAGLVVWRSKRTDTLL
Procedure: (§1) The binding assay was performed using scintillation proximity assay (SPA) beads (RPNQ0001) from PerkinElmer and cell membranes from the Amylin 3(a)/CRE-luc cells (as described in Assay (II)) were used. Membranes were prepared in the following way; the cells were rinsed with PBS and incubated with Versene for approximately 5 min before harvesting. The cells were flushed with PBS and the cell-suspension was centrifuged for 5 min at 1000 rpm. Cells were homogenized (ultrathurrax) in a buffer containing 20 mM Na-HEPES and 10 mM EDTA (pH 7.4) and centrifuged at 20.000 rpm for 15 min. The resulting pellet was resuspended, homogenized and centrifuged (20.000 rpm, 15 min) in a buffer containing 20 mM Na-HEPES and 0.1 mM EDTA (pH 7.4, buffer 2). The resulting pellet was resuspended in buffer 2 and protein concentration was measured (BCA protein Assay, Pierce). The homogenate was kept cold during the whole procedure. The membranes were kept at −80° C. until use. The assay was performed in a 384 well Optiplate (PerkinElmer) in a total volume of 40 ul. Membranes were mixed with SPA beads. Final concentration of membranes 35 ng/μL final and SPA beads was 0.05 mg/well. Test-compounds were dissolved in DMSO and further diluted in assay buffer (50 mM Hepes, pH 7.4, 1 mM CaCl2, 5 mM MgCl₂, 0.1% OA and 0.02% Tween20). […] The final mixture was incubated with shaking at 400 rpm for 120 min at 25° C. prior to centrifugation (1500 rpm, 10 min). Samples were analyzed on TopCounter™ (Packard). The IC₅₀ was calculated using (one site binding competition analysis) GraphPad Prism5 as a measure of receptor affinity.

[2] = target: T1, human amylin 3(a) receptor (human …); experiment: cell-based or functional assay
[3] = target: T2, human calcitonin receptor (human, UniProt P30988 25-474); experiment: cell-based or functional assay
T2 sequence (looked up): T1 sequence (looked up) 1

[4] = target: T3, human amylin 3(a) receptor (human calcitonin receptor co-expressed with RAMP-3) (human, UniProt P30988 25-474; O60896 24-148, limits assumed); experiment: cell-based or functional assay
T3 sequence (looked up) 1: T1 sequence (looked up) 1
T3 sequence (looked up) 2: T1 sequence (looked up) 2

[5] = target: T4, human calcitonin receptor (human, UniProt P30988 25-474); experiment: cell-based or functional assay; remark: listed apart in the source
T4 sequence (looked up): T1 sequence (looked up) 1

[6] = target: T3, human amylin 3(a) receptor (human …); experiment: SPA competition binding (Assay V): displacement of 125I-rat amylin from membranes of BHK cells with human calcitonin receptor + RAMP-3
Procedure: as §1

[7] = target: T5, human amylin 3(a) receptor (human calcitonin receptor co-expressed with RAMP-3) (human, UniProt P30988 25-474; O60896 24-148, limits assumed); experiment: cell-based or functional assay; remark: listed apart in the source
T5 sequence (looked up) 1: T1 sequence (looked up) 1
T5 sequence (looked up) 2: T1 sequence (looked up) 2

[8] = target: T6, human calcitonin receptor (human, UniProt P30988 25-474); experiment: cell-based or functional assay; remark: listed apart in the source
T6 sequence (looked up): T1 sequence (looked up) 1

B1: N^α1-[(4S)-4-carboxy-4-(19-carboxynonadecanoylamino)butanoyl]-[Glu14,Arg17,Pro21,Pro26,Pro37]-h-amylin (peptide)
peptide: {C20 diacid-γGlu}-KCNTATCATQRLAEFLRHSSPNFGAPLSSTNVGSNTP-NH2
modifications: disulfide 2-7
SMILES: CC(C)C[C@H](NC(=O)[C@H](CCCNC(=N)N)NC(=O)[C@H](CCC(N)=O)NC(=O)[C@@H](NC(=O)[C@H](C)NC(=O)[C@@H]1CSSC[C@H](NC(=O)[C@H](CCCCN)NC(=O)CC[C@H](NC(=O)CCCCCCCCCCCCCCCCCCC(=O)O)C(=O)O)C(=O)N[C@@H](CC(N)=O)C(=O)N[C@@H]([C@@H](C)O)C(=O)N[C@@H](C)C(=O)N[C@@H]([C@@H](C)O)C(=O)N1)[C@@H](C)O)C(=O)N[C@@H](C)C(=O)N[C@@H](CCC(=O)O)C(=O)N[C@@H](Cc1ccccc1)C(=O)N[C@@H](CC(C)C)C(=O)N[C@@H](CCCNC(=N)N)C(=O)N[C@@H](Cc1c[nH]cn1)C(=O)N[C@@H](CO)C(=O)N[C@@H](CO)C(=O)N1CCC[C@H]1C(=O)N[C@@H](CC(N)=O)C(=O)N[C@@H](Cc1ccccc1)C(=O)NCC(=O)N[C@@H](C)C(=O)N1CCC[C@H]1C(=O)N[C@@H](CC(C)C)C(=O)N[C@@H](CO)C(=O)N[C@@H](CO)C(=O)N[C@H](C(=O)N[C@@H](CC(N)=O)C(=O)N[C@H](C(=O)NCC(=O)N[C@@H](CO)C(=O)N[C@@H](CC(N)=O)C(=O)N[C@H](C(=O)N1CCC[C@H]1C(N)=O)[C@@H](C)O)C(C)C)[C@@H](C)O
notes: also called compound 5
IC50 [1]: 0.374 nM
hAmylin-R funct. EC50 (pM) [2]: 162 pM
Ratio hCT/hAmylin funct. [3]: 1

Binder: {C20 diacid-γGlu}-KCNTATCATQRLAEFLRHSSPNFGAILPSTNVGSETY-NH2 (disulfide 2-7, also called compound 33)
IC50 [1]: 0.915 nM
hAmylin-R funct. EC50 (pM) [2]: 243 pM
Ratio hCT/hAmylin funct. [3]: 2.2

B2: N^ε1-[(4S)-4-carboxy-4-(19-carboxynonadecanoylamino)butanoyl]-[Asp14,Arg17,Pro21,Pro27,Pro34,Arg35]-h-amylin (peptide)
peptide: K([γGlu-C20 diacid])CNTATCATQRLADFLRHSSPNFGAIPSSTNVGPRTY-NH2
modifications: disulfide 2-7; N-terminus assumed
SMILES: CC[C@H](C)[C@H](NC(=O)[C@H](C)NC(=O)CNC(=O)[C@H](Cc1ccccc1)NC(=O)[C@H](CC(N)=O)NC(=O)[C@@H]1CCCN1C(=O)[C@H](CO)NC(=O)[C@H](CO)NC(=O)[C@H](Cc1c[nH]cn1)NC(=O)[C@H](CCCNC(=N)N)NC(=O)[C@H](CC(C)C)NC(=O)[C@H](Cc1ccccc1)NC(=O)[C@H](CC(=O)O)NC(=O)[C@H](C)NC(=O)[C@H](CC(C)C)NC(=O)[C@H](CCCNC(=N)N)NC(=O)[C@H](CCC(N)=O)NC(=O)[C@@H](NC(=O)[C@H](C)NC(=O)[C@@H]1CSSC[C@H](NC(=O)[C@@H](N)CCCCNC(=O)CC[C@H](NC(=O)CCCCCCCCCCCCCCCCCCC(=O)O)C(=O)O)C(=O)N[C@@H](CC(N)=O)C(=O)N[C@@H]([C@@H](C)O)C(=O)N[C@@H](C)C(=O)N[C@@H]([C@@H](C)O)C(=O)N1)[C@@H](C)O)C(=O)N1CCC[C@H]1C(=O)N[C@@H](CO)C(=O)N[C@@H](CO)C(=O)N[C@H](C(=O)N[C@@H](CC(N)=O)C(=O)N[C@H](C(=O)NCC(=O)N1CCC[C@H]1C(=O)N[C@@H](CCCNC(=N)N)C(=O)N[C@H](C(=O)N[C@@H](Cc1ccc(O)cc1)C(N)=O)[C@@H](C)O)C(C)C)[C@@H](C)O
Ratio hCT/hAmylin funct. (hCTR EC50 over hAmylin-R EC50) [4]: 24.9
hAmylin-R funct. EC50 (CRE luciferase reporter, BHK cells) [4]: 0.146 nM
hCTR funct. EC50 (CRE luciferase reporter, BHK cells) [5]: 3.64 nM
IC50 [6]: 0.281 nM

Binder: K([γGlu-C20 diacid])CNTATCATQRLADFLRHSSPNFGAIPSSTNVGPETY-NH2 (disulfide 2-7 (inferred))
Ratio hCT/hAmylin funct. [7]: 3.9
hCTR funct. EC50 (pM) [8]: 1120 pM

Second part, the binder after the results:

Ratio hCT/hAmylin funct. (hCTR EC50 over hAmylin-R EC50) [4]: 44.9
hAmylin-R funct. EC50 (CRE luciferase reporter, BHK cells) [4]: 0.162 nM
hCTR funct. EC50 (CRE luciferase reporter, BHK cells) [5]: 7.28 nM
IC50 [6]: 0.453 nM
Binder: K([γGlu-γGlu-C20 diacid])CNTATCATQRLADFLRHSSPNFGAIPSSTNVGPRTY-NH2 (disulfide 2-7, also called compound 130)

hAmylin-R funct. EC50 (CRE luciferase reporter, BHK cells) [4]: 0.383 nM
hCTR funct. EC50 (CRE luciferase reporter, BHK cells) [5]: 100 nM
IC50 [6]: 0.365 nM
B3: N^ε1-[(4S)-4-carboxy-4-[[(4S)-4-carboxy-4-(19-carboxynonadecanoylamino)butanoyl]amino]butanoyl]-[D-Asp14,Arg17,Pro21,Pro27,Arg35]-h-amylin (peptide)
peptide: K([γGlu-γGlu-C20 diacid])CNTATCATQRLA[dD]FLRHSSPNFGAIPSSTNVGSRTY-NH2
modifications: disulfide 2-7; N-terminus assumed
SMILES: CC[C@H](C)[C@H](NC(=O)[C@H](C)NC(=O)CNC(=O)[C@H](Cc1ccccc1)NC(=O)[C@H](CC(N)=O)NC(=O)[C@@H]1CCCN1C(=O)[C@H](CO)NC(=O)[C@H](CO)NC(=O)[C@H](Cc1c[nH]cn1)NC(=O)[C@H](CCCNC(=N)N)NC(=O)[C@H](CC(C)C)NC(=O)[C@H](Cc1ccccc1)NC(=O)[C@@H](CC(=O)O)NC(=O)[C@H](C)NC(=O)[C@H](CC(C)C)NC(=O)[C@H](CCCNC(=N)N)NC(=O)[C@H](CCC(N)=O)NC(=O)[C@@H](NC(=O)[C@H](C)NC(=O)[C@@H]1CSSC[C@H](NC(=O)[C@@H](N)CCCCNC(=O)CC[C@H](NC(=O)CC[C@H](NC(=O)CCCCCCCCCCCCCCCCCCC(=O)O)C(=O)O)C(=O)O)C(=O)N[C@@H](CC(N)=O)C(=O)N[C@@H]([C@@H](C)O)C(=O)N[C@@H](C)C(=O)N[C@@H]([C@@H](C)O)C(=O)N1)[C@@H](C)O)C(=O)N1CCC[C@H]1C(=O)N[C@@H](CO)C(=O)N[C@@H](CO)C(=O)N[C@H](C(=O)N[C@@H](CC(N)=O)C(=O)N[C@H](C(=O)NCC(=O)N[C@@H](CO)C(=O)N[C@@H](CCCNC(=N)N)C(=O)N[C@H](C(=O)N[C@@H](Cc1ccc(O)cc1)C(N)=O)[C@@H](C)O)C(C)C)[C@@H](C)O

Ratio hCT/hAmylin funct. [7]: 0.8
hCTR funct. EC50 (pM) [8]: 102 pM
Binder: K([γGlu-γGlu-C20 diacid])CNTATCATQRLAEFLRHSSPNFGAIPSSTNVGPETP-NH2 (disulfide 2-7 (inferred))
